# B1: recombinant murine FcγRIV, A0A0B4J1G0 21-249 (receptor)
# chain: GLQKAVVNLDPKWVRVLEEDSVTLRCQGTFSPEDNSIKWFHNESLIPHQDANYVIQSARVKDSGMYRCQTALSTISDPVQLEVHMGWLLLQTTKWLFQEGDPIHLRCHSWQNRPVRKVTYLQNGKGKKYFHENSELLIPKATHNDSGSYFCRGLIGHNNKSSASFRISLGDPGSPSMFPPWHQ
# modifications: not checked
# B2: recombinant human FcγR2B, P31994 43-310 (receptor)
# chain: TPAAPPKAVLKLEPQWINVLQEDSVTLTCRGTHSPESDSIQWFHNGNLIPTHTQPSYRFKANNNDSGEYTCQTGQTSLSDPVHLTVLSEWLVLQTPHLEFQEGETIVLRCHSWKDKPLVKVTFFQNGKSKKFSRSDPNFSIPQANHSHSGDYHCTGNIGYTLYSSKPVTITVQAP
# modifications: here or on the partner: soluble ectodomain by convention (UniProt topology); tag not stated
# B3: recombinant murine FcγRI (receptor)
# chain: EVVNATKAVITLQPPWVSIFQKENVTLWCEGPHLPGDSSTQWFINGTAVQISTPSYSIPEASFQDSGEYRCQIGSSMPSDPVQLQIHNDWLLLQASRRVLTEGEPLALRCHGWKNKLVYNVVFYRNGKSFQFSSDSEVAILKTNLSHSGIYHCSGTGRHRYTSAGVSITVKELFTTPVLRASVSSPFPEGSLVTLNCETNLLLQRPGLQLHFSFYVGSKILEYRNTSSEYHIARAEREDAGFYWCEVATEDSSVLKRSPELELQVLGPQSSAP
# B4: recombinant murine FcγRIII, P08508 31-261 (receptor)
# chain: ALPKAVVKLDPPWIQVLKEDMVTLMCEGTHNPGNSSTQWFHNGRSIRSQVQASYTFKATVNDSGEYRCQMEQTRLSDPVDLGVISDWLLLQTPQRVFLEGETITLRCHSWRNKLLNRISFFHNEKSVRYHHYKSNFSIPKANHSHSGDYYCKGSLGSTQHQSKPVTITVQDPATTSSISLVWYHT
# modifications: not checked
# B5: recombinant human FcγR2A, P12318 34-317 (receptor)
# chain: QAAAPPKAVLKLEPPWINVLQEDSVTLTCQGARSPESDSIQWFHNGNLIPTHTQPSYRFKANNNDSGEYTCQTGQTSLSDPVHLTVLSEWLVLQTPHLEFQEGETIMLRCHSWKDKPLVKVTFFQNGKSQKFSHLDPTFSIPQANHSHSGDYHCTGNIGYTLFSSKPVTITVQVPSMGSSSPMG
# modifications: not checked
# B6: recombinant murine FcγRIIb, P08101 30-330 (receptor)
# chain: THDLPKAVVKLEPPWIQVLKEDTVTLTCEGTHNPGNSSTQWFHNGRSIRSQVQASYTFKATVNDSGEYRCQMEQTRLSDPVDLGVISDWLLLQTPQLVFLEGETITLRCHSWRNKLLNRISFFHNEKSVRYHHYSSNFSIPKANHSHSGDYYCKGSLGRTLHQSKPVTITVQGPKSSRSLP
# modifications: not checked
# Tests used:
# [1] = biological target: T1, VIC16 human IgG1 (wild type VIC16-human IgG1 REFORMab) (mouse | human); experiment: BLI
# [2] = biological target: VIC16 REFORMab KWES (printed K236W/E333S) (mouse | human); experiment: SPR; conditions: remark: other sources report otherwise
# [3] = biological target: VIC16 REFORMab SDIEALGA (G236A/S239D/A330L/I332E) (mouse | human); experiment: SPR; conditions: remark: other sources report otherwise
# [4] = biological target: VIC16 REFORMab EFTEA (G236A/S267E/H268F/S324T/I332E) (mouse | human); experiment: SPR; conditions: remark: other sources report otherwise
# [5] = biological target: T1, VIC16 human IgG1 (wild type VIC16-human …); experiment: SPR; conditions: remark: other sources report otherwise
# [6] = biological target: VIC16 human IgG1 (wild type VIC16-human IgG1 REFORMab) (mouse | human); experiment: BLI; remark: listed apart in the source
Binder,Kd [1],Kd [5],further results
B1,0.24 µM,–,–
B2,–,23 µM,Kd [2]: 224 µM; Kd [3]: 21 µM; Kd [4]: 1.2 µM
B3,–,–,Kd [6]: 0.08 µM
B4,2.83 µM,–,–
B5,–,30 µM,–
B6,14.9 µM,–,–
